Assay results: publication PMC10031466, “The ROK kinase N-acetylglucosamine kinase uses a sequential random enzyme mechanism with successive conformational changes upon each substrate binding” (The Journal of Biological Chemistry, 2023)

Key:
Assay in all cases: PK/LD coupled enzyme kinetics (KM app)
Details in all cases: Mg2+
[1] = substrate: Nc1ncnc2c1ncn2[C@@H]1O[C@H](COP(=O)(O)OP(=O)(O)OP(=O)(O)O)[C@@H](O)[C@H]1O; format: biochemical, Plesiomonas shigelloides
[2] = substrate: CC(=O)N[C@@H]1[C@@H](O)[C@H](O)[C@@H](CO)O[C@@H]1O; format: biochemical, Vibrio vulnificus
[3] = substrate: Nc1ncnc2c1ncn2[C@@H]1O[C@H](COP(=O)(O)OP(=O)(O)OP(=O)(O)O)[C@@H](O)[C@H]1O; format: biochemical, Vibrio vulnificus

Row | Protein | Km [1] | Km [2] | Km [3]
1 | N-acetylglucosamine kinase (PsNagK) (Plesiomonas shigelloides 302-73) (protein, His-tagged protein) MYYGFDIGGTKIEFGAFDADLVRVARERVATPTESYAAFLDAIVTLVNNADAEFGVKGTVGIGIPGIADVETGKLLTSNIPAAMGHTLQRDLEERLQRPVKIENDANCFALSEAWDEDLRGEPSVLGLILGTGVGGGLIFNGKVHSGRANIAGEIGHTRLPYDALKLLGMENAPIFPCGCKNSGCIDNYLSGRGFEQLYDHYFSEKLSAPEIIAHYEQGERRAVQHVERFMELLAICLANIFTCLDPHVVVLGGGLSNFELIYQELPKRLPAHLLHVAKLPKIIKARHGDAGGVRGAAFLNLA | 290 ± 20 µM |  | 
2 | N-acetylglucosamine kinase (NagK) (Vibrio vulnificus CMCP6) (protein) MYYGFDVGGTKIEFGAFNEKLERVATERVPTPTDDYPLLLETIAGLVAKYDQEFACEGKIGLGLPGMEDADDATVLTVNVPAAKGKPLRADLEAKIGRSVKIENDANCFALSEAWDEELQDAPSVMGLILGTGFGGGLIYEGKVFSGRNNVAGELGHMRLPLDAWFHLGDNAPLLGCGCGKKGCLDSYLSGRGFELLYAHYYGEEKKAIDIIKANAAGDEKAAEHVERFMELLAICFGNIFTANDPHVVALGGGLSNFELIYEEMPKRVPKYLLSVAKCPKIIKAKHGDSGGVRGAAFLNIKG |  | 210 ± 60 µM | 41 ± 9 µM
